The source of these data is publication PMC8472270.

The target in test [1] is Exendin-4 (Heloderma suspectum) (UniProt P26349). In words: static and dynamic light scattering (SLS/DLS); peptide concentration series in PBS, pH 7.4, 23 °C; scattering angle 90°; relative molecular mass and Stokes radius; monomer to oligomer.
Test [2] concerns the target Exendin-4_F22R. As to the kind of experiment: concentration-dependent Stokes radius of self-association (method not named in legend). Conditions: parent: est. 2.3; read off a plot.
The target in test [3] is Exendin-4_F22R. As to the kind of experiment: concentration-dependent relative molecular mass of self-association (method not named in legend). Conditions: parent: est. 3.2; read off a plot.

As usually defined, the stoichiometry N is a count of units in the complex or per binding partner. Take “Exendin-4 (from UniProt P26349 48-87) (peptide)”: the stoichiometry N in test [1] turned out to be 3.
For the substance Exendin-4 (from UniProt P26349) F22R, the other: Stokes radius RS in test [2] was determined as 1.6 nm. The other: relative molecular mass Mrel in test [3] came out at 0.95.
